Experimental data: publication PMC7910438, “The TUTase URT1 connects decapping activators and prevents the accumulation of excessively deadenylated mRNAs to avoid siRNA biogenesis” (Nature Communications, 2021)

Target: T1, 6His-GST-URT1 (Arabidopsis thaliana, UniProt O64642 1-764)
T1 construct: URT1, Arabidopsis thaliana, AT2G45620, 764 amino acids; amplified from cDNA; Plasmids in Supplementary Data 7; expression and purification in Supplementary Methods; source: E. coli BL21 DE3, purified; not shown: 6His, N-terminal, kept; GST, N-terminal, kept
T1 sequence (looked up): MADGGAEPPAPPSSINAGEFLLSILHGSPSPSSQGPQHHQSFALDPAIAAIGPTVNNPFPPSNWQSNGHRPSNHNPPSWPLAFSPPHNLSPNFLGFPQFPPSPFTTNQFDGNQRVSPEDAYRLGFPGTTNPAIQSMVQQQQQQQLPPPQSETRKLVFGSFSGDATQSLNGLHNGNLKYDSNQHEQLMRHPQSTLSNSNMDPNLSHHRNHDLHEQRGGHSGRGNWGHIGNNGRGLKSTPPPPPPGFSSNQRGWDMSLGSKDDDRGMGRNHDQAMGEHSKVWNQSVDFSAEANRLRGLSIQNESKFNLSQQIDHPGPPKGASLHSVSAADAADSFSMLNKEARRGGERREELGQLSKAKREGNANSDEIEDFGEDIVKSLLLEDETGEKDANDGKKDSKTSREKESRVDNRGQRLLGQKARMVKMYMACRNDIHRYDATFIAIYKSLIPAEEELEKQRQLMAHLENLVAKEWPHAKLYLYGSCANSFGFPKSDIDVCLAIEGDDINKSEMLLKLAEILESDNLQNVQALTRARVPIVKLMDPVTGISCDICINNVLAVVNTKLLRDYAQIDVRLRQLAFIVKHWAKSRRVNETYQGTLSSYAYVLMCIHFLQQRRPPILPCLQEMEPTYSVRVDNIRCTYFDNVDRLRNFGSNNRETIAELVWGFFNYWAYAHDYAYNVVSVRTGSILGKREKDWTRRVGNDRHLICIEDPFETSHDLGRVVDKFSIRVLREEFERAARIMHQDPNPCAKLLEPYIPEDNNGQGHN
Assay: pull-down; GST pull-down on glutathione sepharose; 10 pmol of each purified protein in 500 µl of 20 mM MOPS pH 7.2, 100 mM KCl, 15% glycerol, 0.1% Tween 20 with 100 ng/µl RNase A, 4 °C; SDS-PAGE, SYPRO Ruby
Settings: both partners purified

binding result: binds
B1: 6His-MBP-DCP5 (natural protein, Arabidopsis thaliana, UniProt Q9C658 1-611, looked up)
chain: MAADNTGSKSSSAADSYVGSLISLTSKSEIRYEGILYNINTDESSIGLQNVRSFGTEGRKKDGPQVPPSDKVYEYILFRGTDIKDLQVKASPPVQPPASTINNDPAIIQSHYPSPMPTSGSLPSTASGSLPDISSHNGQPGQHGMGFQNAMPLYQPGGNLGSWGASPQPPMYWQGFYTPPPNGLPQLHQQSLIRPPHGLPMPNSLQQPLQYPNFNTPPPPTGSSSLQGSSLPEAPSSLFPFSTSSQMLAPSSLPFPGLPPVTLSSSLQSTLQSAPSPSLASEMAPPLLSNKAPITAPPTLPQDTNLLSFSLSTTRATEASTGLPLSNKPSVVTGPISPPQTTPLTSAPVAGVSSSISQDKPKPLLVTPGQLLQSGSSAVSLSPPSTNADKDVEVVQVSSSAGLEQSVPVTSEAQPPILPLPSSARPTQKPNGHSFPNHNGYRGRGRGRGRGAGRSHQVMKFTEDFDFTAMNEKFNKDEVWGHLGKSTTLDGDEDDDSPTVDEAELPKIEAKPVYNKDDFFDSLSSNTIDRESQNSRPRFSEQRKLDTETFGEFSRFRGGRGGRGGYGRNNGYSRGGYGGRGYGGYGGRGGGGGGYGYGGRGQGRGVSNRTT
notes: DECAPPING 5 (DCP5), Arabidopsis thaliana, AT1G26110; amplified from cDNA; source: E. coli BL21 DE3, purified; not shown: 6His, N-terminal, kept; MBP, N-terminal, kept
